Test results reported in patent US20230414709A1 (TRUSTEES OF COLUMBIA UNIVERSITY IN THE CITY OF NEW YORK, published 2023).

Target: mouse megalin (mouse, UniProt A2ARV4 26-4660)
Test: cell-based or functional assay

mouse megalin, sequence (A2ARV4 26-4660 limits assumed): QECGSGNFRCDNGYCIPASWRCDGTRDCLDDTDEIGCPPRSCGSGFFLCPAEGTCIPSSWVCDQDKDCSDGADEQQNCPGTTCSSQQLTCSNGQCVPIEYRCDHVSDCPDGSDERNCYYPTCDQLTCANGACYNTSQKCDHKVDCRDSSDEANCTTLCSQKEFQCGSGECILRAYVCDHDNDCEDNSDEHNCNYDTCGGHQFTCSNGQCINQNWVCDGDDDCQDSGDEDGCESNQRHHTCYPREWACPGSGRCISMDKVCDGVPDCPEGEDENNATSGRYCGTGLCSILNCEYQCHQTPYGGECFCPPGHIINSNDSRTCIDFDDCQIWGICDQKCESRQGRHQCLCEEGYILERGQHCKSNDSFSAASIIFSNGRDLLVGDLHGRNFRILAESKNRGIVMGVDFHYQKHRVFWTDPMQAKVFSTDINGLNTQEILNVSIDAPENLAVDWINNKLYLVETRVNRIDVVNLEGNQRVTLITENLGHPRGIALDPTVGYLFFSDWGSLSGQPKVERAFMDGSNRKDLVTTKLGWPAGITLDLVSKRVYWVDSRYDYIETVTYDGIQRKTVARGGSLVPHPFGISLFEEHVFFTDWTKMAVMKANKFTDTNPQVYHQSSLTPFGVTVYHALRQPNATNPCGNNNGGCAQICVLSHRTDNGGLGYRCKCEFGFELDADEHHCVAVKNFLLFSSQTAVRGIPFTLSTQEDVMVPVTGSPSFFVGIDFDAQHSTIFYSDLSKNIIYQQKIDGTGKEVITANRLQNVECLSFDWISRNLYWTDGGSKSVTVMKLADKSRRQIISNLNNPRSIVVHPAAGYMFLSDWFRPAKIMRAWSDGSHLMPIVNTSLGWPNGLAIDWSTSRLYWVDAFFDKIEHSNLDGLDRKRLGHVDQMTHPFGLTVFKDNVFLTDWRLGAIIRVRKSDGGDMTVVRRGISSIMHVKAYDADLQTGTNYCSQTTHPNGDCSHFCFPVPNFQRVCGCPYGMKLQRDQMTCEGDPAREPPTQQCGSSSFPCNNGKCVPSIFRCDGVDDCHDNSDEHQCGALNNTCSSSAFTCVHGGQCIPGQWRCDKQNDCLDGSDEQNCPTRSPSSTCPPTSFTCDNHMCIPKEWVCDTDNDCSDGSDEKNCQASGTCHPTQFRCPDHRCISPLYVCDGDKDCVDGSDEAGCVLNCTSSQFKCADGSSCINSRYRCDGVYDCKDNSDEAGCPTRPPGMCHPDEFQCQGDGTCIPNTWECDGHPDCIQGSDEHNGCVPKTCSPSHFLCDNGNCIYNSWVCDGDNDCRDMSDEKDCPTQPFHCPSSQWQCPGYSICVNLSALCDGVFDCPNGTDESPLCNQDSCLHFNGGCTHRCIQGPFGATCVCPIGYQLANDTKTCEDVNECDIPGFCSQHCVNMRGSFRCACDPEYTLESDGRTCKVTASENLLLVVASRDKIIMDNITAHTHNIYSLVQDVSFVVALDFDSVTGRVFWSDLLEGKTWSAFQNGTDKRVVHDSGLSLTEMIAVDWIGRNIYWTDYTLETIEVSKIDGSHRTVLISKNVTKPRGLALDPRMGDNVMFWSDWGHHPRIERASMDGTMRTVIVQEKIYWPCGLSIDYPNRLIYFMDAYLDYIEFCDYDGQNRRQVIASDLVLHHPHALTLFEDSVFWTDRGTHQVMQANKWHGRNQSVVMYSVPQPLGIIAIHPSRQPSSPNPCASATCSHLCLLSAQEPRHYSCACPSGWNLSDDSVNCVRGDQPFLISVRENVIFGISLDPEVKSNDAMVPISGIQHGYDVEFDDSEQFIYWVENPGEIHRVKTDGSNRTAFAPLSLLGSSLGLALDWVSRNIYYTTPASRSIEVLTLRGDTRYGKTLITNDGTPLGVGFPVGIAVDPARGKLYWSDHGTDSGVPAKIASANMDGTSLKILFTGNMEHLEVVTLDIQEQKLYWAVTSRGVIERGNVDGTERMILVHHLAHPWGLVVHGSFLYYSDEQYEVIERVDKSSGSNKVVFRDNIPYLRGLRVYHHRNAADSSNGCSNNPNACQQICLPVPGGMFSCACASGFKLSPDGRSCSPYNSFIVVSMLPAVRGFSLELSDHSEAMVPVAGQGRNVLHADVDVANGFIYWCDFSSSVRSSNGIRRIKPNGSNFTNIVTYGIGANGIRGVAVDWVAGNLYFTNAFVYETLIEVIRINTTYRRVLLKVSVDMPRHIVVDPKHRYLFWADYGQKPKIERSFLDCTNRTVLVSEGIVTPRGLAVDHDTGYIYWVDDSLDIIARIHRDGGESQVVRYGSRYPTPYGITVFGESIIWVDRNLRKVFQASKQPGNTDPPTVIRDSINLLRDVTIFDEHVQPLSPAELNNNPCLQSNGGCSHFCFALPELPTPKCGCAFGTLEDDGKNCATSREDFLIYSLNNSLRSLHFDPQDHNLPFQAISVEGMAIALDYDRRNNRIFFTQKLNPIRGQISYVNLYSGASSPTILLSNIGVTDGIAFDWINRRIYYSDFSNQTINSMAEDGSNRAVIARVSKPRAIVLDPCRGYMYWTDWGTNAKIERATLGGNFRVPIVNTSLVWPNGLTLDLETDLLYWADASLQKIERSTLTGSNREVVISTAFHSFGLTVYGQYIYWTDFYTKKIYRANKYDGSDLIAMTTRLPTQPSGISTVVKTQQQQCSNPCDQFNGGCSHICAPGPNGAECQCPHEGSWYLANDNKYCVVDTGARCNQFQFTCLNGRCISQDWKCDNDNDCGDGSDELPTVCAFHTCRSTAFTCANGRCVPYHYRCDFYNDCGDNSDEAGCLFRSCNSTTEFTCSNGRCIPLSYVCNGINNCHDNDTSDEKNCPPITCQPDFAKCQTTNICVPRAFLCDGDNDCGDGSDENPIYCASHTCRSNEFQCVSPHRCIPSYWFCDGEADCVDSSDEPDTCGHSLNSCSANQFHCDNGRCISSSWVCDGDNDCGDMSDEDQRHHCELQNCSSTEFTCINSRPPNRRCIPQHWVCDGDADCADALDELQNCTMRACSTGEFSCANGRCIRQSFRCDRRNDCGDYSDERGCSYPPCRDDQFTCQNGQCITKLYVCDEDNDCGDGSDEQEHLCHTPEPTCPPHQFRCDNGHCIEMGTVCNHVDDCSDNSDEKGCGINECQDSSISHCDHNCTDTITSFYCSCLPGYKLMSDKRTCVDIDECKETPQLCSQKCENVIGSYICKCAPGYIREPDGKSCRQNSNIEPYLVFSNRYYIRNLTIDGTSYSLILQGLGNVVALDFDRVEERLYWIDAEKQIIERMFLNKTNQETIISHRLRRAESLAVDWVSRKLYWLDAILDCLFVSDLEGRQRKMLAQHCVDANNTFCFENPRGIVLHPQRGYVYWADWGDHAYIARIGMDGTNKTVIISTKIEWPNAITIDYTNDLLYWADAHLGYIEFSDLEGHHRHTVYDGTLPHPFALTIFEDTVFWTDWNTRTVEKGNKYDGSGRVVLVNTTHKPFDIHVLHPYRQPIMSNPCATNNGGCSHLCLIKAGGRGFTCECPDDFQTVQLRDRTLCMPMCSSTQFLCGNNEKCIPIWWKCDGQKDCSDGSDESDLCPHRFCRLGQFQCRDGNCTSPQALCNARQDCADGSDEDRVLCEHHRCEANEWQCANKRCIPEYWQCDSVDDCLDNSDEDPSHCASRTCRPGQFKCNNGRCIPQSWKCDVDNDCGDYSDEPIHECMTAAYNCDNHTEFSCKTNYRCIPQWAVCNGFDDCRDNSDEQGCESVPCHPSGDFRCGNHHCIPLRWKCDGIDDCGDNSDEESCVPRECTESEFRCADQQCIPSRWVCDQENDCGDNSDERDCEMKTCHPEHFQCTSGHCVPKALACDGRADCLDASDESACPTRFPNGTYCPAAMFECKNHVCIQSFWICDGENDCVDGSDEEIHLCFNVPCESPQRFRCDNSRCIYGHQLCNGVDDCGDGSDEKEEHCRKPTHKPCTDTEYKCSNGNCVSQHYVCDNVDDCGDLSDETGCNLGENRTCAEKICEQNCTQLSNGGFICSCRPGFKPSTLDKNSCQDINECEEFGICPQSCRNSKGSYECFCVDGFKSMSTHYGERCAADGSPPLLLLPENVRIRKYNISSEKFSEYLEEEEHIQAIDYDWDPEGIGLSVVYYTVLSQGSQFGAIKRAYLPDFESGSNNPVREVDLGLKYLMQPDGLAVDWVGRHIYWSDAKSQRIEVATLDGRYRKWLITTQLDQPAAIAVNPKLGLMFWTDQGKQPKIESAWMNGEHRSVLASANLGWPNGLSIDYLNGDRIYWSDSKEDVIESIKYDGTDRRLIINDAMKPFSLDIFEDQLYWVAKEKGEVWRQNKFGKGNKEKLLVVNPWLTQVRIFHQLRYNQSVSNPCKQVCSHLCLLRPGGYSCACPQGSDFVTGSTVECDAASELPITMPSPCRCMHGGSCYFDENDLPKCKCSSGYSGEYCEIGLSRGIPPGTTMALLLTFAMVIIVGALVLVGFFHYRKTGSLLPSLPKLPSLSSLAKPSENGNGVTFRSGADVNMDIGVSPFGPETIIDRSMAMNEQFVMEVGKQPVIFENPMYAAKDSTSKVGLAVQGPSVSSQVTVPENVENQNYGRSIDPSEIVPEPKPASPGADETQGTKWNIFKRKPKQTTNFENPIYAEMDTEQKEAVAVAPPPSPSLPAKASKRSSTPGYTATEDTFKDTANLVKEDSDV

| Binder | Accumulation 3 hours after i.p. injection (%): Urine (Ngal-enterochelin-55Fe3+ complex, C57BL/6 mice) [%] |
| --- | --- |
| NGAL mutant A1 (ligand) QDSTSDLIPAPPLSSVPLQQNFQDNQFQGKWYVVGLAGNAILREDKDPQKMYATIYELKEDKSYNVTSVLFRKKKCDYWIRTFVPGCQPGEFTLGNIKSYPGLTSYLVRVVSTNYNQHAMVFFKKVSQNREYFKITLYGRTKELTSELKENFIRFSKSLGLPENHIVFPVPIDQCIDG | 0.55 |
| NGAL mutant F2 (ligand) QDSTSDLIPAPPLSKVPLQQNFQDNQFQGKWYVVGLAGNAILREDEDPQKMYATIYELQEDKSYNVTSVLFRKKKCDYWIRTFVPGCQPGEFTLGNIKSYPGLTSYLVRVVSTNYNQHAMVFFKKVSQNREYFKITLYGRTKELTSELKENFIRFSKSLGLPENHIVFPVPIDQCIDG | 0.11 |
| NGAL mutant A2 (ligand) QDSTSDLIPAPPLSSVPLQQNFQDNQFQGKWYVVGLAGNAILREDKDPQKMYATIYELKEDKSYNVTSVLFRKKKCDYWIRTFVPGCQPGEFTLGNIKSYPGLTSYLVRVVSTNYNQHAMVFFKKVSQNREYFKITLYGQTQELTSELKENFIRFSKSLGLPENHIVFPVPIDQCIDG | 0.18 |
| NGAL mutant A3 (ligand) QDSTSDLIPAPPLSKVPLQQNFQDNQFQGKWYVVGLAGNAILQEDKDPQKMYATIYELKEDKSYNVTSVLFRKKKCDYWIRTFVPGCQPGEFTLGNIKSYPGLTSYLVRVVSTNYNQHAMVFFKKVSQNREYFKITLYGRTKELTSELKENFIRFSKSLGLPENHIVFPVPIDQCIDG | 0.23 |
| NGAL mutant D1 (ligand) QDSTSDLIPAPPLSKVPLQQNFQDNQFQGKWYVVGLAGNAILREDKDPQKMYATIYELKEDKSYNVTSVLFRDDGCDYWIRTFVPGCQPGEFTLGNIKSYPGLTSYLVRVVSTNYNQHAMVFFKKVSQNREYFKITLYGRTKELTSELKENFIRFSKSLGLPENHIVFPVPIDQCIDG | 0.1 |
| NGAL mutant B1 (ligand) QDSTSDLIPAPPLSKVPLQQNFQDNQFQGKWYVVGLAGNAILREDKDPQKMYATIYELKEDKSYNVTSVLFRKKKCDYWIRTFVPGCQPGEFTLGNIQSYPGLTSYLVRVVSTNYNQFAMVFFKKVSQNREYFKITLYGRTKELTSELKENFIRFSKSLGLPENNIVFPVPIDQCIDG | 0.22 |
| NGAL mutant F1 (ligand) QDSTSDLIPAPPLSSVPLQQNFQDNQFQGKWYVVGLAGNAILREDEDPQKMYATIYELQEDKSYNVTSVLFRKKKCDYWIRTFVPGCQPGEFTLGNIKSYPGLTSYLVRVVSTNYNQHAMVFFKKVSQNREYFKITLYGRTKELTSELKENFIRFSKSLGLPENHIVFPVPIDQCIDG | 0.51 |
| NGAL mutant D2 (ligand) QDSTSDLIPAPPLSKVPLQQNFQDNQFQGKWYVVGLAGNAILREDKDPQKMYATIYELKEDGSYNVTSVLFRKKKCDYWIRTFVPGCQPGEFTLGNIKSYPGLTSYLVRVVSTNYNQHAMVFFKKVSQNREYFKITLYGRTKELTSELKENFIRFSKSLGLPENHIVFPVPIDQCIDG | 0.11 |
| NGAL mutant C5 (ligand) QDSTSDLIPAPPLSKVPLQQNFQDNQFQGKWYVVGLAGNAILREDKDPQKMYATIYELKEDKSYNVTSVLFQKKKCDYWIRTFVPGCQPGEFTLGNIKSYPGLTSYLVRVVSTNYNQHAMVFFKKVSQNREYFKITLYGRTKELTSELKENFIRFSQSLGLPENHIVFPVPIDQCIDG | 0.26 |
| NGAL mutant B2 (ligand) QDSTSDLIPAPPLSSVPLQQNFQDNQFQGKWYVVGLAGNAILREDEDPQKMYATIYELKEDKSYNVTSVLFRKKKCDYWIRTFVPGCQPGEFTLGNIKSYPGLTSYLVRVVSTNYNQFAMVFFKKVSQNREYFKITLYGRTKELTSELKENFIRFSKSLGLPENNIVFPVPIDQCIDG | 1.22 |

Other lines, results leading:

| Accumulation 3 hours after i.p. injection (%): Urine (Ngal-enterochelin-55Fe3+ complex, C57BL/6 mice) [%] | Binder |
| --- | --- |
| 0.05 | NGAL mutant I5 (ligand) QDSTSDLIPAPPLSSVPLQQNFQDNQFQGKWYVVGLAGNAILREDKDPQKMYATIYELKEDGSYNVTSVLFRDDGCDYWIRTFVPGCQPGEFTLGNIKSYPGLTSYLVRVVSTNYNQHAMVFFKKVSQNQEYFKITLYGRTKELTSELKENFIRFSKSLGLPENHIVFPVPIDQCIDG |
| 6 | NGAL mutant I1 (ligand) QDSTSDLIPAPPLSSVPLQQNFQDNQFQGKWYVVGLAGNAILREDKDPQKMYATIYELKEDKSYNVTSVLFRDDGCDYWIRTFVPGCQPGEFTLGNIKSYPGLTSYLVRVVSTNYNQHAMVFFKKVSQNQEYFKITLYGRTKELTSELKENFIRFSKSLGLPENHIVFPVPIDQCIDG |
| 0.3 | NGAL mutant H3 (ligand) QDSTSDLIPAPPLSKVPLQQNFQDNQFQGKWYVVGLAGNAILREDKDPQKMYATIYELKEDKSYNVTSVLFRKKKCDYWIRTFVPGCQPGEFTLGNIKSYPGLTSYLVRVVSTNYNQFAMVFFKKVSQNREYFKITLYGRTKELTSELQENFIRFSKSLGLPENNIVFPVPIDQCIDG |
| 0.37 | NGAL mutant H1 (ligand) QDSTSDLIPAPPLSKVPLQQNFQDNQFQGKWYVVGLAGNAILREDKDPQKMYATIYELKEDKSYNVTSVLFRKKKCDYWIRTFVPGCQPGEFTLGNIKSYPGLTSYLVRVVSTNYNQHAMVFFKKVSQNREYFKITLYGRTKELTSELKENFIRFSKSLGLPENNIVFPVPIDQCIDG |
| 1.23 | NGAL mutant F5 (ligand) QDSTSDLIPAPPLSSVPLQQNFQDNQFQGKWYVVGLAGNAILREDEDPQKMYATIYELKEDKSYNVTSVLFRKKKCDYWIRTFVPGCQPGEFTLGNIKSYPGLTSYLVRVVSTNYNQHAMVFFKKVSQNREYFKITLYGRTKELTSELQENFIRFSKSLGLPENNIVFPVPIDQCIDG |
| 2.9 | NGAL mutant K5 (ligand) QDSTSDLIPAPPLSSVPLQQNFQDNQFQGKWYVVGLAGNAILREDEDPQKMYATIYELKEDKSYNVTSVLFRKKKCDYWIRTFVPGCQPGEFTLGNIQSYPGLTSYLVRVVSTNYNQFAMVFFKKVSQNQEYFKITLYGRTKELTSELQENFIRFSKSLGLPENNIVFPVPIDQCIDG |
| 0.17 | NGAL mutant G3 (ligand) QDSTSDLIPAPPLSKVPLQQNFQDNQFQGKWYVVGLAGNAILREDKDPQKMYATIYELKEDKSYNVTSVLFRKKKCDYWIRTFVPGCQPGEFTLGNIKSYPGLTSYLVRVVSTNYNQHAMVFFKKVSQNREYFKITLYGRTKELTSELKENFIRFSQSLGLPENHIVFPVPIDQCIDG |
| 0.28 | NGAL mutant G1 (ligand) QDSTSDLIPAPPLSSVPLQQNFQDNQFQGKWYVVGLAGNAILQEDKDPQKMYATIYELKEDKSYNVTSVLFRKKKCDYWIRTFVPGCQPGEFTLGNIKSYPGLTSYLVRVVSTNYNQHAMVFFKKVSQNREYFKITLYGRTKELTSELQENFIRFSKSLGLPENHIVFPVPIDQCIDG |
| 0.27 | NGAL mutant H2 (ligand) QDSTSDLIPAPPLSSVPLQQNFQDNQFQGKWYVVGLAGNAILREDKDPQKMYATIYELKEDKSYNVTSVLFRKKKCDYWIRTFVPGCQPGEFTLGNIQSYPGLTSYLVRVVSTNYNQFAMVFFKKVSQNQEYFKITLYGRTKELTSELQENFIRFSKSLGLPENNIVFPVPIDQCIDG |
| 6.9 | NGAL mutant I3 (ligand) QDSTSDLIPAPPLSKVPLQQNFQDNQFQGKWYVVGLAGNAILREDKDPQKMYATIYELKEDGSYNVTSVLFRDDGCDYWIRTFVPGCQPGEFTLGNIQSYPGLTSYLVRVVSTNYNQHAMVFFKKVSQNREYFKITLYGRTKELTSELKENFIRFSKSLGLPENHIVFPVPIDQCIDG |
| 1.65 | NGAL mutant F4 (ligand) QDSTSDLIPAPPLSSVPLQQNFQDNQFQGKWYVVGLAGNAILREDEDPQKMYATIYELKEDKSYNVTSVLFRKKKCDYWIRTFVPGCQPGEFTLGNIKSYPGLTSYLVRVVSTNYNQHAMVFFKKVSQNREYFKITLYGRTKELTSELQENFIRFSKSLGLPENHIVFPVPIDQCIDG |
| 0.24 | NGAL mutant H5 (ligand) QDSTSDLIPAPPLSSVPLQQNFQDNQFQGKWYVVGLAGNAILREDKDPQKMYATIYELKEDKSYNVTSVLFRKKKCDYWIRTFVPGCQPGEFTLGNIQSYPGLTSYLVRVVSTNYNQHAMVFFKKVSQNREYFKITLYGRTKELTSELKENFIRFSKSLGLPENNIVFPVPIDQCIDG |
| 9.6 | NGAL mutant K2 (ligand) QDSTSDLIPAPPLSSVPLQQNFQDNQFQGKWYVVGLAGNAILREDKDPQKMYATIYELKEDKSYNVTSVLFRDDGCDYWIRTFVPGCQPGEFTLGNIQSYPGLTSYLVRVVSTNYNQFAMVFFKKVSQNQEYFKITLYGRTKELTSELQENFIRFSKSLGLPENNIVFPVPIDQCIDG |
| 1.9 | NGAL mutant K1 (ligand) QDSTSDLIPAPPLSSVPLQQNFQDNQFQGKWYVVGLAGNAILREDEDPQKMYATIYELQEDKSYNVTSVLFRKKKCDYWIRTFVPGCQPGEFTLGNIQSYPGLTSYLVRVVSTNYNQFAMVFFKKVSQNQEYFKITLYGRTKELTSELQENFIRFSKSLGLPENNIVFPVPIDQCIDG |
